B1: Pistol ribozyme (parent)
chain: GGGUCGUUGUUCCAUAAUCGCGUGGAUAUGGCACGCAAGUUUCUACCGGGCACCGUAAAUGUCCGACUGGAGCCGUUCGGGCGGCUAUAAACAGACCUCAGGCCCGAAGCGUGGCGGCACCUGCCGCCGGUGGUAAAAAAGAUCGGAAGAGCACACGUCU

Variants of: B1
Assay: aptazyme ON/OFF ratio, guanine; higher = stronger switching; co-transcriptional cleavage with and without guanine
With G9U U10A U11C C12U C13A the “aptazyme ON/OFF ratio” value was 1.11.
For G9U U10A U11C C12U C13G, the “aptazyme ON/OFF ratio” value was 1.39.
For G9U U11A, the “aptazyme ON/OFF ratio” value was 1.24.
In the case of G9U U11G, the “aptazyme ON/OFF ratio” value is reported as 1.74.
With G9U U11C the “aptazyme ON/OFF ratio” value was 2.53.
In the case of G9U U10C U11C C12A C13A, the “aptazyme ON/OFF ratio” value is reported as 1.15.
For G9U U10C U11C C12A C13G, the “aptazyme ON/OFF ratio” value was 1.27.
With G9U U10C U11C C12A C13U the “aptazyme ON/OFF ratio” value was 1.2.
For G9U U10G C12U, the “aptazyme ON/OFF ratio” value was 1.62.
In the case of G9U U10G C12A, the “aptazyme ON/OFF ratio” value is reported as 1.47.
In the case of G9U U10G C12G, the “aptazyme ON/OFF ratio” value is reported as 1.64.
With G9U U10A U11A C12U C13A the “aptazyme ON/OFF ratio” value was 1.09.
In the case of G9U U10A U11A C12U C13G, the “aptazyme ON/OFF ratio” value is reported as 1.7.
In the case of G9U U10A U11A C12U C13U, the “aptazyme ON/OFF ratio” value is reported as 1.08.
For G9U U10A U11C C13U, the “aptazyme ON/OFF ratio” value was 1.17.
For G9U U10A U11C C13G, the “aptazyme ON/OFF ratio” value was 1.04.
With G9U U10A U11C C13A the “aptazyme ON/OFF ratio” value was 1.53.
In the case of G9U U10G U11C, the “aptazyme ON/OFF ratio” value is reported as 1.28.
With G9U U10G U11A the “aptazyme ON/OFF ratio” value was 1.2.
For G9U U10G U11G, the “aptazyme ON/OFF ratio” value was 1.55.
With G9U U11G C12G C13G the “aptazyme ON/OFF ratio” value was 1.36.
For G9U U11G C12G C13U, the “aptazyme ON/OFF ratio” value was 1.21.
With G9U U11G C12G C13A the “aptazyme ON/OFF ratio” value was 1.49.
For G9U U10G U11C C12U C13A, the “aptazyme ON/OFF ratio” value was 1.14.
For G9U U10G U11C C12U C13G, the “aptazyme ON/OFF ratio” value was 1.17.
With G9U U10G U11C C12U C13U the “aptazyme ON/OFF ratio” value was 1.18.
With G9U U10A C12A C13A the “aptazyme ON/OFF ratio” value was 1.22.
For G9U U10A C12A C13G, the “aptazyme ON/OFF ratio” value was 0.84.
In the case of G9U U10A C12A C13U, the “aptazyme ON/OFF ratio” value is reported as 1.09.
With G9U C12U the “aptazyme ON/OFF ratio” value was 2.37.
For G9U C12A, the “aptazyme ON/OFF ratio” value was 1.08.
In the case of G9U C12G, the “aptazyme ON/OFF ratio” value is reported as 1.75.
In the case of G9C U10G U11G C12G, the “aptazyme ON/OFF ratio” value is reported as 1.16.
With G9C U10G U11G C12U the “aptazyme ON/OFF ratio” value was 1.13.
In the case of G9U U11G C12U, the “aptazyme ON/OFF ratio” value is reported as 1.99.
For G9U U11G C12G, the “aptazyme ON/OFF ratio” value was 2.82.
For G9U U11G C12A, the “aptazyme ON/OFF ratio” value was 2.21.
For G9U U10G U11G C13G, the “aptazyme ON/OFF ratio” value was 1.19.
For G9U U10G U11G C13U, the “aptazyme ON/OFF ratio” value was 1.26.
For G9U U10G U11G C13A, the “aptazyme ON/OFF ratio” value was 1.25.
For G9C U11G C12G, the “aptazyme ON/OFF ratio” value was 1.27.
For G9C U11G C12A, the “aptazyme ON/OFF ratio” value was 1.11.
With G9C U11G C12U the “aptazyme ON/OFF ratio” value was 1.84.
With G9C U11G C12U C13U the “aptazyme ON/OFF ratio” value was 1.41.
In the case of G9C U11G C12U C13A, the “aptazyme ON/OFF ratio” value is reported as 1.3.
With G9C U11G C12U C13G the “aptazyme ON/OFF ratio” value was 1.25.
With G9U U10C U11C C12G C13G the “aptazyme ON/OFF ratio” value was 1.11.
With G9U U10C U11C C12G C13A the “aptazyme ON/OFF ratio” value was 1.08.
In the case of G9U U10C U11C C12G C13U, the “aptazyme ON/OFF ratio” value is reported as 1.1.
With G9U U10A U11A the “aptazyme ON/OFF ratio” value was 2.34.
In the case of G9U U10A U11G, the “aptazyme ON/OFF ratio” value is reported as 2.39.
For G9U U10A U11C, the “aptazyme ON/OFF ratio” value was 1.33.
With G9C U11G C12A C13A the “aptazyme ON/OFF ratio” value was 1.14.
For G9C U11G C12A C13G, the “aptazyme ON/OFF ratio” value was 1.03.
In the case of G9C U11G C12A C13U, the “aptazyme ON/OFF ratio” value is reported as 1.13.
In the case of G9U U10A C12U, the “aptazyme ON/OFF ratio” value is reported as 1.41.
With G9U U10A C12A the “aptazyme ON/OFF ratio” value was 1.21.
With G9U U10A C12G the “aptazyme ON/OFF ratio” value was 1.41.
For G9U U10G U11C C12G C13U, the “aptazyme ON/OFF ratio” value was 1.27.
For G9U U10G U11C C12G C13G, the “aptazyme ON/OFF ratio” value was 1.06.
With G9U U10G U11C C12G C13A the “aptazyme ON/OFF ratio” value was 1.27.
With U10A C12A C13A the “aptazyme ON/OFF ratio” value was 1.22.
With U10A C12A C13G the “aptazyme ON/OFF ratio” value was 1.19.
In the case of U10A C12A C13U, the “aptazyme ON/OFF ratio” value is reported as 1.31.
For G9C U11C C12A C13U, the “aptazyme ON/OFF ratio” value was 1.16.
For G9C U11C C12A C13A, the “aptazyme ON/OFF ratio” value was 1.12.
For G9C U11C C12A C13G, the “aptazyme ON/OFF ratio” value was 1.09.
With G9U U11A C12U C13A the “aptazyme ON/OFF ratio” value was 1.02.
With G9U U11A C12U C13G the “aptazyme ON/OFF ratio” value was 1.5.
In the case of G9U U11A C12U C13U, the “aptazyme ON/OFF ratio” value is reported as 1.65.
With G9U U10A U11G C12G C13U the “aptazyme ON/OFF ratio” value was 1.14.
For G9U U10A U11G C12G C13G, the “aptazyme ON/OFF ratio” value was 1.11.
For G9U U10A U11G C12G C13A, the “aptazyme ON/OFF ratio” value was 1.1.
In the case of G9U U10G U11G C12A C13A, the “aptazyme ON/OFF ratio” value is reported as 1.28.
In the case of G9U U10G U11G C12A C13U, the “aptazyme ON/OFF ratio” value is reported as 1.38.
In the case of G9U U10G U11G C12A C13G, the “aptazyme ON/OFF ratio” value is reported as 1.13.
In the case of G9U U11C C12G C13G, the “aptazyme ON/OFF ratio” value is reported as 1.28.
In the case of G9U U11C C12G C13U, the “aptazyme ON/OFF ratio” value is reported as 1.68.
With G9U U11C C12G C13A the “aptazyme ON/OFF ratio” value was 1.3.
With G9U U10G U11A C13A the “aptazyme ON/OFF ratio” value was 1.13.
For G9U U10G U11A C13G, the “aptazyme ON/OFF ratio” value was 1.14.
For G9U U10G U11A C13U, the “aptazyme ON/OFF ratio” value was 1.08.
For G9U U10A C12G C13U, the “aptazyme ON/OFF ratio” value was 1.21.

— the RNAGym collection of RNA variant scans (doi:10.1021/acssynbio.7b00057)
